What follows are sequences tested against Fyn (UniProt P06241) (assay: phosphorylation enrichment, bacterial display (enrichment ratio); higher = better substrate or ligand; peptides without Tyr show the background).
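Note: 11-residue human phosphosite peptides and single-mutation variants displayed on the E. coli surface, counted by deep sequencing, each peptide's frequency after selection divided by its frequency in the unselected input library; frequency after pTyr selection over input frequency; kinase dosed for 20-30% of maximal phosphorylation in three min.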

Sequence of Fyn (P06241 whole entry, looked up): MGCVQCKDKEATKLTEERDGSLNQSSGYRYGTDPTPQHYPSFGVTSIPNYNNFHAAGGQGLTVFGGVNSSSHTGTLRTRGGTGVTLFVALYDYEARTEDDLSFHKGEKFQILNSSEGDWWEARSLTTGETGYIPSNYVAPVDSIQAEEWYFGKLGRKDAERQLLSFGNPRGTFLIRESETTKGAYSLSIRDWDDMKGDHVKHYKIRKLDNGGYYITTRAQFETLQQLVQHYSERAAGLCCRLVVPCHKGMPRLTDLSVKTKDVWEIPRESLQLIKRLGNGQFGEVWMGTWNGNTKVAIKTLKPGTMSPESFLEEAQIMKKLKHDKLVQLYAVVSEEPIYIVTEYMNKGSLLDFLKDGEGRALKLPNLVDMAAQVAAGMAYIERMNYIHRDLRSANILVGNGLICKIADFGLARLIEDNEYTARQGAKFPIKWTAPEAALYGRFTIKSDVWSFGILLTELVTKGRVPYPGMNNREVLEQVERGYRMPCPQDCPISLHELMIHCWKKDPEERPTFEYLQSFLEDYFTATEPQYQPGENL

| Sequence | phosphorylation enrichment |
| --- | --- |
| GLSDLYVKIHL [SYT2_Y309_P308L] | 0.623 |
| EQSGSYIWVPA [DLG1_Y895] | 0.471 |
| PIYEGYALPHA [ACTA1_Y171] | 19.8 |
| LTVVIYVLIGR [EPHA3_Y561] | 0.567 |
| NFDRIYIFHLR [MYOF_Y1137_V1136I_YF] | 0.605 |
| SQQTFCRVSNM [ABCD1_Y181_Y181C_YF] | 0.453 |
| ERCAQYKKDGA [ALDOA_Y138] | 0.394 |
| FEPWVYSLSYE [PRKDC_Y647_F649L] | 7.16 |
| DPTNTYARPAE [SGMS2_Y24] | 0.457 |
| KDAGDYKCKAK [LRIT3_Y326] | 0.386 |
| EKAEVYRSENE [RIOK2_Y348_G349R] | 0.448 |
| EGTGHYLCNAC [GATA5_Y208_D203E] | 0.411 |
| DSILVYQRKEQ [USH2A_Y1909_G1911R] | 0.506 |
| LIHTKCPQLLP [AHCY_Y143_Y143C] | 0.438 |
| LNEAVYTKMMT [G6PD_Y401_P396L] | 5.35 |
| KKARAYRPGIE [FLNA_Y287_G288R] | 0.338 |
| KRISCYEARYQ [PFKFB3_Y194_S197R] | 0.479 |

| Sequence | phosphorylation enrichment |
| --- | --- |
| ADARMYGVLPW [PLP1_Y207] | 9.58 |
| RMSQRYGDVLQ [CYP1A2_Y72] | 0.431 |
| LIFTNYEVGKD [GSTP1_Y112_A114V_YF] | 1.18 |
| RQSTLYSFFPK [MSH6_Y8] | 5.84 |
| LADKPYTFEDF [FXN_Y118_YF] | 7.15 |
| NGRQCYSCRGN [PLAUR_Y217_K220R] | 0.299 |
| HEEKVYLSRGD [CRACR2A_Y141] | 0.995 |
| PPTFRYERGSR [INPPL1_Y663_YF] | 0.671 |
| TDTQLYGRFGS [ITGA2B_Y384_G380D] | 11.1 |
| YRNKPYISWPS [CDC42BPB_Y1638_S1633Y] | 0.41 |
| LERYIYNREEF [HLA-DPB1_Y59] | 1.26 |
| LFNQDYPIHSV [GATM_Y227_YF] | 1.01 |
| RAADYYSQQMA [GBP6_Y334] | 0.371 |
| QRIFQYIQSRF [DYRK1B_Y273_YF] | 0.502 |
| SVTCTYSPTLN [TP53_Y126_A129T] | 0.566 |
| EWQQIYTYDSG [JUP_Y20_T19I] | 8.85 |

Each sequence was assayed on AncSZ in the same assay as above.

| Sequence | phosphorylation enrichment |
| --- | --- |
| GLSDLYVKIHL [SYT2_Y309_P308L] | 1.26 |
| EQSGSYIWVPA [DLG1_Y895] | 1.86 |
| PIYEGYALPHA [ACTA1_Y171] | 2.11 |
| LTVVIYVLIGR [EPHA3_Y561] | 1.39 |
| NFDRIYIFHLR [MYOF_Y1137_V1136I_YF] | 1.53 |
| SQQTFCRVSNM [ABCD1_Y181_Y181C_YF] | 0.636 |
| ERCAQYKKDGA [ALDOA_Y138] | 0.612 |
| FEPWVYSLSYE [PRKDC_Y647_F649L] | 1.6 |
| DPTNTYARPAE [SGMS2_Y24] | 1.02 |
| KDAGDYKCKAK [LRIT3_Y326] | 0.542 |
| EKAEVYRSENE [RIOK2_Y348_G349R] | 1.09 |
| EGTGHYLCNAC [GATA5_Y208_D203E] | 0.524 |
| DSILVYQRKEQ [USH2A_Y1909_G1911R] | 0.636 |
| LIHTKCPQLLP [AHCY_Y143_Y143C] | 0.693 |
| LNEAVYTKMMT [G6PD_Y401_P396L] | 1.9 |
| KKARAYRPGIE [FLNA_Y287_G288R] | 0.499 |
| KRISCYEARYQ [PFKFB3_Y194_S197R] | 0.708 |

| Sequence | phosphorylation enrichment |
| --- | --- |
| ADARMYGVLPW [PLP1_Y207] | 0.793 |
| RMSQRYGDVLQ [CYP1A2_Y72] | 1.03 |
| LIFTNYEVGKD [GSTP1_Y112_A114V_YF] | 2.14 |
| RQSTLYSFFPK [MSH6_Y8] | 1.34 |
| LADKPYTFEDF [FXN_Y118_YF] | 2.9 |
| NGRQCYSCRGN [PLAUR_Y217_K220R] | 0.375 |
| HEEKVYLSRGD [CRACR2A_Y141] | 0.884 |
| PPTFRYERGSR [INPPL1_Y663_YF] | 0.974 |
| TDTQLYGRFGS [ITGA2B_Y384_G380D] | 0.783 |
| YRNKPYISWPS [CDC42BPB_Y1638_S1633Y] | 0.547 |
| LERYIYNREEF [HLA-DPB1_Y59] | 1.05 |
| LFNQDYPIHSV [GATM_Y227_YF] | 2.31 |
| RAADYYSQQMA [GBP6_Y334] | 0.537 |
| QRIFQYIQSRF [DYRK1B_Y273_YF] | 1.09 |
| SVTCTYSPTLN [TP53_Y126_A129T] | 1.48 |
| EWQQIYTYDSG [JUP_Y20_T19I] | 1.6 |

Source: the supplement of paper PMC10065799, “High-throughput profiling of sequence recognition by tyrosine kinases and SH2 domains using bacterial peptide display” (eLife, 2023)
